According to US20040001835A1, “Prevention or treatment of cancer using integrin alphavbeta3 antagonists in combination with other agents” (MedImmune, Inc., priority 2002, published 2004):
Entries after “also recorded” stand apart in the source; their conditions may differ.

Tests used:
[1] = target: T1, human β3 Mutant A (E171Q) (Homo sapiens, UniProt P05106, E197Q); assay: FACS analysis of HEK293 transfectants, human β3 containing rat residues; type: binding; details: flow cytometry
T1 construct: expressed in transfected cells; host or cells: HEK293
Description: (§1) FIG. 4. Binding of Integrin αvβ3 specific antibodies to human β3 containing rat residues.
(§2) Sequence comparison of residues 164 to 202 of β3 integrins from different species and design of mutations. To further characterize the binding epitope of Vitaxin®, the gene encoding β3 was cloned and sequenced from hamster cDNA. The amino acids in the region previously proposed to contain the LM609 binding epitope are shown above (dashed lines depict conserved residues). To determine which residues in the human sequence were essential for antibody binding, the amino acids shown in color were mutated to the corresponding rat residues. The resulting genes were transfected to HEK293 cells which express endogenous human αv. Resulting cell lines were analyzed by flow cytometry for antibody binding.
(§3) This protocol is used to assess the surface expression of integrins in HEK-293 cells transfected with various Integrin subunits. Primary antibodies bound to the integrins are detected by fluorochrome-conjugated secondary antibodies and analyzed by flow cytometry.
(§4) 1. Wash adherent cells twice with 5 ml of PBS.
(§5) 2. Add 1.5 ml of trypsin solution or cell dissociation solution, incubate at 37_C. foir 2 min.
(§6) 3. Add 3 ml of culture medium or FACs buffer to the plate and loosen cells from the plate by pipetting. Count cells. Resuspend cells in FACs buffer at 5×10^6 per ml.
(§7) 4. Transfer an aliquot of 5×10^5 cells (100 μl) into microfuge tubes containing 10 μg mouse IgG or human IgG. Incubate cells for 20 min at RT to block IgG receptor sites. Note: use mouse IgG for blocking when using human primary mAb; use human IgG for blocking when using mouse primary mAb.
(§8) 5. Add […] of Vitaxin®, or other primary mAb, and incubate for 20 min at RT.
(§9) 6. Wash twice with 500 μl of FACS buffer, spinning cells at 1500 rpm for 5 minutes.
(§10) 7. Add 0.5 mg of goat anti-human IgG Alexa 488, or other secondary antibodies, and incubate for 20 min at RT.
(§11) 8. Wash twice with 500 μl FACS buffer, spinning cells at 1500 rpm for 5 minutes.
(§12) 9. Resuspend in 500 μl buffer for FACS analysis.
(§13) 10. Use unstained cells for background. For negative control, use secondary antibody alone.

[2] = target: T2, human β3 Mutant A + C (E171Q D179T T182S) (Homo sapiens, UniProt P05106, D205T/E197Q/T208S); assay: as above; type: binding; details: flow cytometry
T2 construct: expressed in transfected cells; host or cells: HEK293
Description: as §1, §2, §3, §4, §5, §6, §7, §8, §9, §10, §11, §12, §13

[3] = target: T3, human β3 Mutant ABC (E171Q L173I E174K D179T T182S) (Homo sapiens, UniProt P05106, D205T/E197Q/E200K/L199I/T208S); assay: as above; type: binding; details: flow cytometry
T3 construct: expressed in transfected cells; host or cells: HEK293
Description: as §1, §2, §3, §4, §5, §6, §7, §8, §9, §10, §11, §12, §13

[4] = target: T4, human β3 Mutant B (L173I E174K) (Homo sapiens, UniProt P05106, E200K/L199I); assay: as above; type: binding; details: flow cytometry
T4 construct: expressed in transfected cells; host or cells: HEK293
Description: as §1, §2, §3, §4, §5, §6, §7, §8, §9, §10, §11, §12, §13

[5] = target: T5, modified mouse Integrin αVβ3 with amino acids 164-202 of the human β chain (Mus musculus, UniProt O54890, A208T/I198L/K199E/N204D/N207T/Q196E/S226T); assay: Binding to modified mouse Integrin αVβ3; parameters: species or system mouse/human chimera
T5 sequence (O54890 26-787 Q196E/I198L/K199E/N204D/N207T/A208T/S226T): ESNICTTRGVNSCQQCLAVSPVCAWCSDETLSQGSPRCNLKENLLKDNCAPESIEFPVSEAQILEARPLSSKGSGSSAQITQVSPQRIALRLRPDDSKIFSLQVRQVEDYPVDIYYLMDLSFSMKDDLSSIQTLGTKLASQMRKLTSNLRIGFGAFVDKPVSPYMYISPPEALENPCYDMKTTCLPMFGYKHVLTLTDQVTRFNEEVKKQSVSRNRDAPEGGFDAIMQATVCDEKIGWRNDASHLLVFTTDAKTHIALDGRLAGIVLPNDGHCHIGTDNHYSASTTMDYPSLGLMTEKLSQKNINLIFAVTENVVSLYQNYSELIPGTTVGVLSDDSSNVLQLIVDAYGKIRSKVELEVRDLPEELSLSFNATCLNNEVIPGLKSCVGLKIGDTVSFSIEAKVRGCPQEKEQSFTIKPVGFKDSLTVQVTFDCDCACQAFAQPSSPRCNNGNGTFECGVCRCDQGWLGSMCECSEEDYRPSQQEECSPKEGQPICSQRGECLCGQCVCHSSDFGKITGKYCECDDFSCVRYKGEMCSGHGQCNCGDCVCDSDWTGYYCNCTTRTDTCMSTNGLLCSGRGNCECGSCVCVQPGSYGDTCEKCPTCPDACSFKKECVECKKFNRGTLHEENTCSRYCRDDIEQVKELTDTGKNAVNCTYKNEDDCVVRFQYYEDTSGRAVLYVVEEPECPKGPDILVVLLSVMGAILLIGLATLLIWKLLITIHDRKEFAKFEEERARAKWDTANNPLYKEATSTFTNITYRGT
T5 sequence (P43406 31-885 partner): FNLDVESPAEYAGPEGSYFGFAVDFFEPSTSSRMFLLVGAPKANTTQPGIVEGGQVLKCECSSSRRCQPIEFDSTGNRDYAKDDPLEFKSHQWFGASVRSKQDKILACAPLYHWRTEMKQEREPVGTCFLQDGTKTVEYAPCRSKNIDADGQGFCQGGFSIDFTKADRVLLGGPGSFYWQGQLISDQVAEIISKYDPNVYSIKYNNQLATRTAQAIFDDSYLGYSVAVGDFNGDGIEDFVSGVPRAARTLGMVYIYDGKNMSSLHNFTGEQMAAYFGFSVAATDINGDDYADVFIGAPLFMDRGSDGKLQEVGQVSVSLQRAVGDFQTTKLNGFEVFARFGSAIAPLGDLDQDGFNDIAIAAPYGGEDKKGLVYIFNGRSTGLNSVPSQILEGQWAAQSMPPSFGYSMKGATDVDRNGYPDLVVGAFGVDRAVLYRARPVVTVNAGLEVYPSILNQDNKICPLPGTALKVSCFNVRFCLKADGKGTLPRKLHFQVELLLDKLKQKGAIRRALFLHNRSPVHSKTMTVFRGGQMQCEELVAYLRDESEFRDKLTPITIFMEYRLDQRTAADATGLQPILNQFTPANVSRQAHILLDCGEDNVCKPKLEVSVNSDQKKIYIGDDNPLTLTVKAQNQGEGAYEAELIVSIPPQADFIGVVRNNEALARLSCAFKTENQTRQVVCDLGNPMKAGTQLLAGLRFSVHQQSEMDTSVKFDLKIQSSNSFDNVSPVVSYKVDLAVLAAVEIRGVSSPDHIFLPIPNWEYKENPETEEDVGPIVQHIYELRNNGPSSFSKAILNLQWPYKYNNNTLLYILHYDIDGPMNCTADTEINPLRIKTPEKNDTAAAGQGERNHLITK
T5 sequence (P43406 887-1044 partner): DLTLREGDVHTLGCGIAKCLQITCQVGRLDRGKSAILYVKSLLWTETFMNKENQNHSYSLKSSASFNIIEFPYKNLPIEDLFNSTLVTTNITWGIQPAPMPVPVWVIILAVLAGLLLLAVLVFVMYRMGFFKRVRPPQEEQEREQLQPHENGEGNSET

T2 sequence (P05106 27-788 E197Q/D205T/T208S): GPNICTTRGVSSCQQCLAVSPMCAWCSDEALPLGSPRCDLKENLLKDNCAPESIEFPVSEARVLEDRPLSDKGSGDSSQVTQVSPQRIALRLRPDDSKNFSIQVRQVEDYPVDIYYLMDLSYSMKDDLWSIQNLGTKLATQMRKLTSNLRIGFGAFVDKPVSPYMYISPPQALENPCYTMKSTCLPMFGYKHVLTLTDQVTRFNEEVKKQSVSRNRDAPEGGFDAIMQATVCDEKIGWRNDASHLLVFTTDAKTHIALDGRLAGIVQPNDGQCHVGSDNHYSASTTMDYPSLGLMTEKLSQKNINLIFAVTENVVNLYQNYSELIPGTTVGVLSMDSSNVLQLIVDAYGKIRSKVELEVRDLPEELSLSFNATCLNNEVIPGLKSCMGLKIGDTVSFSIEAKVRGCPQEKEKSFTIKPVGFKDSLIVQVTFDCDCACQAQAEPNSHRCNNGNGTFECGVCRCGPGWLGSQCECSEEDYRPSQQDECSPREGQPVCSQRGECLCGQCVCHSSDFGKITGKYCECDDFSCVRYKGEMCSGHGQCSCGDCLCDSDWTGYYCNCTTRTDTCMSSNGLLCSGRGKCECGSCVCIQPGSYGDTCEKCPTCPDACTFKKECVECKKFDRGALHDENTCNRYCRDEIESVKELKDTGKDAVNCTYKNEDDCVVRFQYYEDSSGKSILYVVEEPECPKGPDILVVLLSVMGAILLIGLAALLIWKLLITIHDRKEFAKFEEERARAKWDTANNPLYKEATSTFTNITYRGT
T2 sequence (P06756 31-889 partner limits assumed): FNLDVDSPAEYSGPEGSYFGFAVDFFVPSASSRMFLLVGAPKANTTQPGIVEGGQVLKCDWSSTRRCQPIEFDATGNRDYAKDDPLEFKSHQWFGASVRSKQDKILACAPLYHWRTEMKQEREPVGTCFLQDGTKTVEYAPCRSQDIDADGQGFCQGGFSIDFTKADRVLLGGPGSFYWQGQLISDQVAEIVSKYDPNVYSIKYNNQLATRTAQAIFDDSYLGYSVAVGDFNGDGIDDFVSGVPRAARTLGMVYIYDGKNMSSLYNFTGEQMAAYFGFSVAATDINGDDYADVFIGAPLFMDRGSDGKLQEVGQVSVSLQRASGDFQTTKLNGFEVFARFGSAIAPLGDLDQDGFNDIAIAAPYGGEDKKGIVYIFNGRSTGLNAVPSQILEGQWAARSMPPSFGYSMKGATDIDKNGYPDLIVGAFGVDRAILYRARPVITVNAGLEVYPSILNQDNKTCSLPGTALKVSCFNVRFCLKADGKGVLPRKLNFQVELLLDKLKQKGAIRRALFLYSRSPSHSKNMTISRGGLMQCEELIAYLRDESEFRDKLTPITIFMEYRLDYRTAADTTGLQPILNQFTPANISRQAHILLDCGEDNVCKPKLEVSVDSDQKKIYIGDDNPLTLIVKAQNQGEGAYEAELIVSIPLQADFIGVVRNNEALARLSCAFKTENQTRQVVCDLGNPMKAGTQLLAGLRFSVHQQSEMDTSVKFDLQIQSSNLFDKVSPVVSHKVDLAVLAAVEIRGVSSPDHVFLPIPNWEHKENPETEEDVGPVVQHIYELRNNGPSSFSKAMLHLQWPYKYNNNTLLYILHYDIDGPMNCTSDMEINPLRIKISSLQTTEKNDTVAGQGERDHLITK
T2 sequence (P06756 891-1048 partner limits assumed): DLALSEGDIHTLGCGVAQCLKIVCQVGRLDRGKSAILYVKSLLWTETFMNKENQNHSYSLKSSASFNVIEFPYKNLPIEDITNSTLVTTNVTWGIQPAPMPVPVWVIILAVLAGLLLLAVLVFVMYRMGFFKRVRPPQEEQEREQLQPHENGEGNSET
T3 sequence (P05106 27-788 E197Q/L199I/E200K/D205T/T208S): as the sequence (P05106 27-788 E197Q/D205T/T208S) above, with L173I, E174K counted along it
T3 sequence (P06756 31-889 partner limits assumed): as the sequence (P06756 31-889 partner limits assumed) above
T3 sequence (P06756 891-1048 partner limits assumed): as the sequence (P06756 891-1048 partner limits assumed) above
T1 sequence (P05106 27-788 E197Q): as the sequence (P05106 27-788 E197Q/D205T/T208S) above, with T179D, S182T counted along it
T1 sequence (P06756 31-889 partner limits assumed): as the sequence (P06756 31-889 partner limits assumed) above
T1 sequence (P06756 891-1048 partner limits assumed): as the sequence (P06756 891-1048 partner limits assumed) above
T4 sequence (P05106 27-788 L199I/E200K): as the sequence (P05106 27-788 E197Q/D205T/T208S) above, with Q171E, L173I, E174K, T179D, S182T counted along it
T4 sequence (P06756 31-889 partner limits assumed): as the sequence (P06756 31-889 partner limits assumed) above
T4 sequence (P06756 891-1048 partner limits assumed): as the sequence (P06756 891-1048 partner limits assumed) above

effect of Mutation A (Glu to Gln at position 171) on antibody binding [1]: disrupts binding
effect of Mutation B (Leu, Glu to Ile, Lys at positions 173 and 174) on antibody binding [4]: disrupt binding
binding to modified mouse Integrin αVβ3 (human β chain amino acids 164-202) [5]: do bind
B1: Vitaxin®: humanized blocking monoclonal antibody that binds Integrin αVβ3 (MEDI-522, MedImmune); humanized and optimized version of LM609 (antibody, chains of the INN, looked up, V domains shown)
VH: QVQLVESGGGVVQPGRSLRLSCAASGFTFSSYDMSWVRQAPGKGLEWVAKVSSGGGSTYYLDTVQGRFTISRDNSKNTLYLQMNSLRAEDTAVYYCARHLHGSFASWGQGTTVTVSS
VL: EIVLTQSPATLSLSPGERATLSCQASQSISNFLHWYQQRPGQAPRLLIRYRSQSISGIPARFSGSGSGTDFTLTISSLEPEDFAVYYCQQSGSWPLTFGGGTKVEIK
effect of Mutations A and C combined on antibody binding [2]: disrupts binding; also recorded: eliminated binding
effect of changing all three regions (A, B and C) to rat residues on antibody binding [3]: disrupt binding; also recorded: completely eliminate binding
